Reference: the supplement of paper PMC9170038

System: MS2 coat protein
Assay: apparent KD of MS2 coat protein; designed switch direction (-1 OFF switch, 1 ON switch): -1; higher = weaker reporter binding
Outline: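 The reported apparent KD is a per-design median over clusters, from curve fits of normalised cluster fluorescence. Protein titrations used SNAP-549-labelled MS2 coat protein, doubled from 0.7 or 1.5 nM to 3 µM, in Tris-HCl pH 7.5 buffer with KCl, MgCl2, BSA, DTT, tRNA and Tween-20, with no input, 200 uM small-molecule ligand, or an oligonucleotide input. The RNA switches were transcribed on Illumina chips by stalled E. coli RNA polymerase.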

[1] = Eterna round: R95, input ligand: FMN 200 uM
[2] = Eterna round: R95, input ligand: microRNA oligo, concentration not stated
[3] = Eterna round: R95, input ligand: none
[4] = input ligand: microRNA oligo, concentration not stated

Row | Sequence | apparent KD of MS2 coat protein [1] | apparent KD of MS2 coat protein [2] | apparent KD of MS2 coat protein [3] | apparent KD of MS2 coat protein (input ligand: FMN 200 uM) | apparent KD of MS2 coat protein (input ligand: none) | apparent KD of MS2 coat protein [4]
1 | CUUAGACAUGAGGAUCACCCAUGUGAGGAUAUGAUGCGGGAGACGAAAAGUUUCAGCAUCAGAAGGCACAUAUG [mod of disincluded 3 v.3 (my top score 87 - 34% A's)] (puzzle: Exclusion 1) | 349 nM | 175 nM | 172 nM | – | – | –
2 | UGCAUGCUAGGAUAUACGGGACAUUAGGGUUCGUCGUAUGGACAUGAGGAUCACCCAUGUAGAAGGAGCGUGCU [Mod4 of JL-ex2-2.15 mat747 mod] (puzzle: Exclusion 2) | – | 18.7 nM | – | – | – | –
3 | UUAACGUCAGGAUAUGCUUAAUAUAUUAUAUUAUAAUAUAUACAUGAGGAUCACCCAUGUAGAAGGGACAUUAU [LRO-Excl2-02-Fireball XL5] (Eterna round: R97, puzzle: Exclusion 2) | – | – | – | 34.1 nM | 52.1 nM | –
4 | ACUUAUUGAGGAUAUACAGAUUAUUACAUGAGGAUCACCCAUGUUCUUCAAUGUAUAUAUGUAGAAGGCAGAGGAA [JL-ex5-4.24 Malcolm mod] (Eterna round: R97, puzzle: Exclusion 5) | – | – | – | 87.6 nM | 39.7 nM | –
5 | UAUGUGUCAGGAUAUUAGUAGUAAAUGAAUAAAAUUAUUACUGAGAAGGGACAUGAGGAUCACCCAUGUGCCUC [Mat - Exclusion 4 - Eli Mod - D27] (Eterna round: R97, puzzle: Exclusion 4) | – | – | – | 345 nM | 35.2 nM | –
6 | UUUUUUGUUGUGAGGAUAUCGUUGUUGUUGUGGAUCGAGAAGGCACAUGAGGAUCACCCAUGUUUGUUGUGGUU [JR_BMOE4_Sub086] (Eterna round: R96, puzzle: Brourd's mod of Exclusion 4) | – | – | – | 272 nM | 109 nM | 81.2 nM
7 | UUUAAUUUUUUUUUUUUACAAGCUUUUUGCUCGUCUUAUACAUGAGGAUCACCCAUGUGAGUGGGAAGUAAAUUAUC [JMF 55] (puzzle: Sensor v3, turn-off variant 2) | 20.5 nM | 248 nM | 19.9 nM | – | – | –
8 | UCGCUGCGAGGAUAUACAUGAGGAUCACCCAUGUGCGGGUCCGGGUCUUUGUCCAUUAGUAGAAGGCGCAGUGA [JL Laongeedie mod 5] (puzzle: Exclusion 3) | – | 225 nM | – | – | – | –
9 | CAAGAACAGGUCAGGAUAUGGCAAAUAAAUAACAACCAGAAGGGACUUGAGGAUCACCCAAGUUUAGAAGGGUA [Tebeorus] (Eterna round: R97, puzzle: Brourd's mod of Exclusion 4) | – | – | – | 221 nM | 39.4 nM | –
10 | AGCUGUGGCCGAGGAUAUCUAAACCUUCAAACCGAGGUAUACUCGGACAUGAGGAUCACCCAUGUAGAGAAGGCGGUCUCAGCA [Eli eng2 - 035] (Eterna round: R96, puzzle: Exclusion NG 2) | – | – | – | 34.7 nM | 13.4 nM | 9.78 nM
11 | UUCGUGCAGCUUUGCUGUACGAGUACAUGAGGAUCACCCAUGUAGGAUAUGGUACGCUUUGCGUGCUAGAAGGAUAUGUGUAGC [salish99_ExNG3_r04_504] (Eterna round: R96, puzzle: Exclusion NG 3) | – | – | – | – | – | 25.7 nM
12 | GUGCCGCGAGGAUAUACAGACGGGUCCAAAACGUGUCUCGGACUUGAGGAUCACCCAAGUAGAAGGCGUAUCAG [salish99_ex2_r4_619] (Eterna round: R97, puzzle: Exclusion 2) | – | – | – | 27.8 nM | 21.4 nM | –
13 | GUGUGCUGAGGAUAUACACAGGAAUAGAAGAUAAGAUAAUCACAUGAGGAUCACCCAUGUAGAAGGCAGAGUGU [Excluse me!! 17 - Jieux - Exclusion 2] (puzzle: Exclusion 2) | – | 13.9 nM | – | – | – | –
14 | GGUUUUUCUGAGGAUAUUGCAUCACCCGAUUUAUAAGAAGGCAGAACAUGAGGAUCACCCAUGUGGGUCUCUAG [Bingo-Bango-27] (Eterna round: R97, puzzle: Exclusion 6) | – | – | – | 24.4 nM | 15.7 nM | –
15 | UUUUGGCAUGUAGGAUAUGGGUCCGAUUGGGAUUUAGAAGGACAUGAGGAUCACCCAUGUGCCCUUACUUGGUGUUUUUUUUUU [EXclNG1-LROPPY20] (Eterna round: R96, puzzle: Exclusion NG 1) | – | – | – | 126 nM | 91.6 nM | 44.6 nM
16 | GGUUGGCGAGGAUAUACAUGAGGAUCACCCAUGUGAGAGAAAAAACUGAGGAAGAAAAGUAGAAGGCGCUGACG [salish99_ex3_r3_026] (puzzle: Exclusion 3) | 117 nM | 23.4 nM | 35.5 nM | – | – | –
17 | AUAUAGAUAGUCAGGAUAUGCUAGUGAUAACAGUAGUAGAAGGGACAUGAGGAUCACCCAUGUAGAUAGUGCAC [Brourd's EX4 #4] (Eterna round: R97, puzzle: Brourd's mod of Exclusion 4) | – | – | – | 32.6 nM | 22.5 nM | –

Row | Sequence | apparent KD of MS2 coat protein [1] | apparent KD of MS2 coat protein [2] | apparent KD of MS2 coat protein [3] | apparent KD of MS2 coat protein (input ligand: FMN 200 uM) | apparent KD of MS2 coat protein (input ligand: none) | apparent KD of MS2 coat protein [4]
18 | GAACCAUGAGGAUAUUCUGAUCCUAACAUGAGGAUCACCCAUGUGAGUACAAAAGUACUCGAAGAAGGCAUGGUUC [Omei Ex5 B2] (Eterna round: R97, puzzle: Exclusion 5) | – | – | – | 819 nM | 428 nM | –
19 | CAGUACUGAGGAUAUACAUGAGGAUCACCCAUGUGUUCCGGCUAGGAAACUAGCAAAGGUAGAAGGCAGUACUG [Salish 065 m11] (Eterna round: R97, puzzle: Exclusion 3) | – | – | – | 823 nM | 43.7 nM | –
20 | GAUCCUAGUGUCAGGAUAUGCGAACAAACGCCAAAGCAGAAGGGACUUGAGGAUCACCCAAGUCGCGAUGCGAC [Arbiaran] (Eterna round: R97, puzzle: Brourd's mod of Exclusion 4) | – | – | – | 257 nM | 45.1 nM | –
21 | CCUCAGUCACAGGAUAUGCUCAUCUAAUGAUGAGCAGAAGGGUGAACAUGAGGAUCACCCAUGUUUACGAGGGU [Omei Ex6 E7] (Eterna round: R97, puzzle: Exclusion 6) | – | – | – | 407 nM | 555 nM | –
22 | AAUAAUCGGGCCUUCCUAAUACAUGAGGAUCACCCAUGUCUCGAGGAUAUACCAACGCACGGUCCGUAGAAGGCGAGACCACAC [Vesoonso] (Eterna round: R96, puzzle: Exclusion NG 3) | – | – | – | 24.2 nM | 21.9 nM | 13.2 nM
23 | AGAUCACAUGAGGAUCACCCAUGUCAGGAUAUCGUCACUGGAGCCUCGGCUCCAGUGACGAGAAGGGAUAAUUA [E1/4-A2] (Eterna round: R97, puzzle: Exclusion 1) | – | – | – | 116 nM | 69 nM | –
24 | CUGAACCCGGUAGGAUAUAUUGUGGGCAGGCGUGGAACGACAUGAGGAUCACCCAUGUAAUUGAGGUAGAAGGGCCGAGAGAUU [Excl-NG2-LRO14] (Eterna round: R96, puzzle: Exclusion NG 2) | – | – | – | 32.8 nM | 37.1 nM | 25.9 nM
25 | CCGGAUUAGUAGGAUAUAGGAGUCGAUAGACACCUAGAAGGACUAACAUGAGGAUCACCCAUGUGUCCUACCGG [Mod of Eli 19 - Jieux - Exclusion 6] (Eterna round: R97, puzzle: Exclusion 6) | – | – | – | 39 nM | 16.7 nM | –
26 | AUUCCCACCCGAGGAUAUGCUUUAUUGCCGGGUGGUCAACAUGAGGAUCACCCAUGUAACUAAACGCAGAAGGCGGACAAUAAG [Ediner] (Eterna round: R96, puzzle: Exclusion NG 2) | – | – | – | 33.5 nM | 33.8 nM | 116 nM
27 | UGGUGUUACGUAGGAUAUUGUCAACAGGCAGUAGGAUAUGCGAAAGCAGAAGGACCGCCAACAGGCGAGAAGGACGGGUUACCU [pwkr exNG2 2xF7 2xFMN.8] (Eterna round: R96, puzzle: Exclusion NG 2) | – | – | – | 136 nM | 211 nM | 145 nM
28 | GCACGAUAUCAGGAUAUGACUAGCUUCGGCUAGUCAGAAGGGAUGACAUGAGGAUCACCCAUGUGAUCACGUGC [E6/1-B1] (Eterna round: R97, puzzle: Exclusion 6) | – | – | – | 79.6 nM | 60.5 nM | –
29 | AUUUUGUGAGGAUAUUAGUUGUAGAAAAUUGUUAGUAUAGCUGAGAAGGCACAUGAGGAUCACCCAUGUAAAUC [JR_Ex4_Sub042] (Eterna round: R97, puzzle: Exclusion 4) | – | – | – | 91 nM | 19 nM | –
30 | GAAAACCAAGGAUAUACAUGAGGAUCACCCAUGUAGGUUGGGACGCCAUAAAGGCGAUGUAGAAGGUGGGAAAA [Inansoge] (puzzle: Exclusion 3) | – | 21.6 nM | – | – | – | –
31 | AAUAACAAGUUGAUCCUACACAUGAGGAUCACCCAUGUGCUCGUCUUGUCAAGUACUAUCACGAAAGUGUUAGUUCA [Mod-Hyphema] (Eterna round: R97, puzzle: Sensor, turn-off variant 1) | – | – | – | 74.7 nM | 263 nM | –
32 | UAUAUAUAGUAAGGAUAUGUAAUUGUUUUAUAAACAGAAGGUACUGACAUGAGGAUCACCCAUGUUUUAGUGUGGGCAUGUAGA [JMF's solution 33] (Eterna round: R96, puzzle: Exclusion NG 1) | – | – | – | – | – | 45.7 nM
33 | AAAAAGGUAGGAUAUCCACUUUAAAACAUGAGGAUCACCCAUGUAAAACCACAUGAAAAAGGAGAAGGACCAAAAA [AK-MS2ROC-r4-exclusion5-2] (Eterna round: R97, puzzle: Exclusion 5) | – | – | – | 24.7 nM | 26 nM | –
34 | UGCAAGCUUUUAAGAUCCUACAUGAGGAUCACCCAUGUGGCUCGUCUUAUACGUACUGUGACGAAAGUCACGGUACG [JL TOV1 3.98] (Eterna round: R97, puzzle: Sensor, turn-off variant 1) | – | – | – | 25.4 nM | 22.8 nM | –
